Paper PMC6347194, “Protein refolding based on high hydrostatic pressure and alkaline pH: Application on a recombinant dengue virus NS1 protein” (PLoS ONE, 2019)

What was measured:
[1] = target: the molecule itself; assay: SEC
[2] = target: the molecule itself; assay: SEC; Superdex 200 10/300, elution in 50 mM CAPS pH 11.0; supernatant of NS1-IBs subjected to 2.4 kbar/0.4 kbar at pH 11.0, before dialysis

B1: dengue virus (DENV) non-structural protein 1 (NS1), recombinant, refolded from inclusion bodies (natural protein)
chain: DSGCVVSWKNKELKCGSGIFITDNVHTWTEQYKFQPESPSKLASAIQKAHEEGICGIRSVTRLENLMWKQITPELNHILSENEVKLTIMTGDIKGIMQAGKRSLQPQPTELKYSWKTWGKAKMLSTESHNQTFLIDGPETAECPNTNRAWNSLEVEDYGFGVFTTNIWLKLREKQDVFCDSKLMSAAIKDNRAVHADMGYWIESALNDTWKIEKASFIEVKSCHWPKSHTLWSNGVLESEMIIPKNFAGPVSQHNYRPGYHTQTAGPWHLGKLEMDFDFCEGTTVVVTEDCGNRGPSLRTTTASGKLITEWCCRSCTLPPLRYRGEDGCWYGMEIRPLKEKEENLVNSLVTA
notes: also called DENV NS1
Q: For B1, which “stoichiometry N” value [1] is on record?
A: 3

Q: And the “stoichiometry N” value [2]?
A: 2
